Laboratory results reported in patent US20210292392A1 (TSB THERAPEUTICS BEIJING, published 2021).

How the values were obtained:
[1] = biological target: recombinant RBD of the spike protein of SARS-CoV (SARS-CoV, UniProt P59594 306-527); assay: SPR, RBD on CM5 chip
[2] = biological target: T1, full length spike of MERS-CoV (MERS-CoV, UniProt K9N5Q8 18-1353); assay: FACS, HEK 293T cells expressing the full length spike, anti-human IgG Fc PE
T1 construct: whole, on cells

[3] = biological target: T2, full length spike of SARS-CoV (SARS-CoV, UniProt P59594 14-1255); assay: as above
T2 construct: whole, on cells

T1 sequence (K9N5Q8 18-751, chain 1 of 2): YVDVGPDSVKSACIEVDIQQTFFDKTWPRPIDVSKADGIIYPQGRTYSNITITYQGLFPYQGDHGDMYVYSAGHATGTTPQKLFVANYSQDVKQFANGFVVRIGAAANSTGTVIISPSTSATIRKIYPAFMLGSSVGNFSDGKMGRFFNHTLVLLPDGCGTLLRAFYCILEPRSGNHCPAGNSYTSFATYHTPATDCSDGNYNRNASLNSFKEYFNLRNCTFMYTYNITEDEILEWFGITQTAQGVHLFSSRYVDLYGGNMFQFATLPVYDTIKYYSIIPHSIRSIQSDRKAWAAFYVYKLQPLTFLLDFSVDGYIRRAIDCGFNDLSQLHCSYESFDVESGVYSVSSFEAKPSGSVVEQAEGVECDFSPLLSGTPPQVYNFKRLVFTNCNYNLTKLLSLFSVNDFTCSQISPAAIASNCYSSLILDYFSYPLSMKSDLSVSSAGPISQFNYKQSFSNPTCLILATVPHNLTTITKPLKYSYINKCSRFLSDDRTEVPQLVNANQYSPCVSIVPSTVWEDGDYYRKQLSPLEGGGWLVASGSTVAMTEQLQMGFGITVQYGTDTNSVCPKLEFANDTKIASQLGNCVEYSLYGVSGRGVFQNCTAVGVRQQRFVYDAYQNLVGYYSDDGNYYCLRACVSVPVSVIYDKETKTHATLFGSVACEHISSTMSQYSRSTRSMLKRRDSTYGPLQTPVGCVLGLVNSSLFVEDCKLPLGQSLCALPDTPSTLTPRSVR
T1 sequence (K9N5Q8 752-1353, chain 2 of 2): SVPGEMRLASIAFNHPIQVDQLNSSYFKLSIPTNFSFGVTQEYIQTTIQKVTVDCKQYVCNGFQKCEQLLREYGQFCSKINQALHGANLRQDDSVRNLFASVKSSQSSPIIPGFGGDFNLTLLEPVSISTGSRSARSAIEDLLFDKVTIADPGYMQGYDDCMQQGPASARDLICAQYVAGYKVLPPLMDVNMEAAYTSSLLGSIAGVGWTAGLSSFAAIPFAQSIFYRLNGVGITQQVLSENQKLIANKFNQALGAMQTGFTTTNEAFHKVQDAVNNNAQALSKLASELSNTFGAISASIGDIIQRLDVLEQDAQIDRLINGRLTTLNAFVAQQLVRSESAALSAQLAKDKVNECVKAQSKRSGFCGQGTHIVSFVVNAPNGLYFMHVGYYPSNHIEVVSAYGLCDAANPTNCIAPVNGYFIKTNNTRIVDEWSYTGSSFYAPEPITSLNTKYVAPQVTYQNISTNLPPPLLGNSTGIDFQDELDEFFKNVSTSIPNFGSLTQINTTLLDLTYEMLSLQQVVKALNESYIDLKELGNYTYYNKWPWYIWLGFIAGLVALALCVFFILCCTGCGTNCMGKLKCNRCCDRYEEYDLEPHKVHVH

B1: P1A-1C10 (antibody, V domains shown)
VH: QVQLVQSGAEVKNPGSSVKVSCKAGGGTSSFYDINWVRQAPGQGLEWIGKIIPRLDIADYAQKSQGRVTITADKSTSTVYLELSSLKSDDTAVYFCARGRPGSEWAYGPFDLWGQGTLVTVSS
VL: DIQMTQSPSTLSASVGDRVTITCRASQSSRAWLAWYQQKPGKAPKLLISKASSLESGVPSRFSGSGYGTEFTLTISSLQPDDSATYYCHQYNSSPFTFGPGTKVQIKR
notes: human IgG1, kappa
**Q.** Does B1 bind [1]?
**A.** no binding (tested: not printed)

**Q.** Does B1 bind [2]?
**A.** no binding (tested: 20 µg/ml)

**Q.** Does B1 bind [3]?
**A.** no binding (tested: 20 µg/ml)
